Measurements: the supplement of paper PMC5998384

Key:
HeLa Kyoto [1] = test: thermal stability score vs G1/S (z-score of summed log2 fold changes over temperatures); higher = more thermally stable than in G1/S
HeLa Kyoto [2] = test: melting temperature (median over replicates), in situ; higher = more thermally stable
HeLa Kyoto [3] = test: solubility in G1/S (NP-40 vs SDS abundance) (log2 ratio); higher = more soluble; conditions: cell cycle stage: G1/S
HeLa Kyoto [4] = test: solubility change mitosis vs G1/S (difference of NP-40 vs SDS log2 ratios) (log2 ratio difference); higher = more soluble in mitosis
[5] = cell cycle stage: early G1 (4.5 h after nocodazole release)
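For melting temperature (median over replicates), in situ in this document: HeLa Kyoto cells synchronized by double thymidine or nocodazole block, proteins quantified by TMT10plex mass spectrometry, three independent biological replicates.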
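For solubility change mitosis vs G1/S (difference of NP-40 vs SDS log2 ratios) in this document: synchronized HeLa Kyoto cells (double thymidine block for G1/S, nocodazole release for mitosis), protein amounts in NP-40 versus SDS lysates quantified by mass spectrometry, three biological replicates.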
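For solubility in G1/S (NP-40 vs SDS abundance) in this document: HeLa Kyoto cells arrested at G1/S by double thymidine block, proteins quantified by TMT10plex mass spectrometry in mild NP-40 versus SDS extracts, three biological replicates.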
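For thermal stability score vs G1/S (z-score of summed log2 fold changes over temperatures) in this document: synchronized HeLa Kyoto cells, proteins quantified by TMT10plex mass spectrometry, three biological replicates, mitosis taken 0.5 h after nocodazole release, G1/S directly after double thymidine block.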

Chain of ASNA1 (chain, as listed by the source): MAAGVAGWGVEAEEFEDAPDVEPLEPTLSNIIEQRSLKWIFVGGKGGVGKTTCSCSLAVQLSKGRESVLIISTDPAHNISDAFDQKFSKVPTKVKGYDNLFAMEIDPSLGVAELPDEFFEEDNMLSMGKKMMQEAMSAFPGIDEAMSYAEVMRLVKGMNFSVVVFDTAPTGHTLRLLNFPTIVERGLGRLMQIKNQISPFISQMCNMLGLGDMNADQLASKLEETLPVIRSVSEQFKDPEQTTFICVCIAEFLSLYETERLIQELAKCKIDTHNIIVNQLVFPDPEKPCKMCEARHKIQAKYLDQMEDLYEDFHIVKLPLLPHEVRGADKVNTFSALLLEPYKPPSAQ

| Substance | thermal stability score (HeLa Kyoto [1]; [5]) | thermal stability score (HeLa Kyoto [1]; cell cycle stage: mitosis) | melting temperature (HeLa Kyoto [2]; cell cycle stage: G1/S) [°C] | melting temperature (HeLa Kyoto [2]; cell cycle stage: mitosis) [°C] | solubility in G1/S (log2) (HeLa Kyoto [3]) | solubility change mitosis (log2) (HeLa Kyoto [4]) |
| --- | --- | --- | --- | --- | --- | --- |
| MATQAYTELQAAPPPSQPPQAPPQAQPQPPPPPPPAAPQPPQPPTAAATPQPQYVTELQSPQPQAQPPGGQKQYVTELPAVPAPSQPTGAPTPSPAPQQYIVVTVSEGAMRASETVSEASPGSTASQTGVPTQVVQQVQGTQQRLLVQTSVQAKPGHVSPLQLTNIQVPQQALPTQRLVVQSAAPGSKGGQVSLTVHGTQQVHSPPEQSPVQANSSSSKTAGAPTGTVPQQLQVHGVQQSVPVTQERSVVQATPQAPKPGPVQPLTVQGLQPVHVAQEVQQLQQVPVPHVYSSQVQYVEGGDASYTASAIRSSTYSYPETPLYTQTASTSYYEAAGTATQVSTPATSQAVASSGSMPMYVSGSQVVASSTSTGAGASNSSGGGGSGGGGGGGGGGGGGGSGSTGGGGSGAGTYVIQGGYMLGSASQSYSHTTRASPATVQWLLDNYETAEGVSLPRSTLYCHYLLHCQEQKLEPVNAASFGKLIRSVFMGLRTRRLGTRGNSKYHYYGLRIKASSPLLRLMEDQQHMAMRGQPFSQKQRLKPIQKMEGMTNGVAVGQQPSTGLSDISAQVQQYQQFLDASRSLPDFTELDLQGKVLPEGVGPGDIKAFQVLYREHCEAIVDVMVNLQFTLVETLWKTFWRYNLSQPSEAPPLAVHDEAEKRLPKAILVLLSKFEPVLQWTKHCDNVLYQGLVEILIPDVLRPIPSALTQAIRNFAKSLESWLTHAMVNIPEEMLRVKVAAAGAFAQTLRRYTSLNHLAQAARAVLQNTAQINQMLSDLNRVDFANVQEQASWVCRCEDRVVQRLEQDFKVTLQQQNSLEQWAAWLDGVVSQVLKPYQGSAGFPKAAKLFLLKWSFYSSMVIRDLTLRSAASFGSFHLIRLLYDEYMYYLIEHRVAQAKGETPIAVMGEFANLATSLNPLDPDKDEEEEEEEESEDELPQDISLAAGGESPALGPETLEPPAKLARTDARGLFVQALPSS [RFX1] | -1.2 | -2.15 | 53.3 | 53 | -0.00333 | -0.21 |
| CKAP5 | -0.177 | -0.509 | 49.6 | 49.2 | 0.0443 | -0.078 |
| MVAPGLVLGLVLPLILWADRSAGIGFRFASYINNDMVLQKEPAGAVIWGFGTPGATVTVTLRQGQETIMKKVTSVKAHSDTWMVVLDPMKPGGPFEVMAQQTLEKINFTLRVHDVLFGDVWLCSGQSNMQMTVLQIFNATRELSNTAAYQSVRILSVSPIQAEQELEDLVAVDLQWSKPTSENLGHGYFKYMSAVCWLFGRHLYDTLQYPIGLIASSWGGTPIEAWSSGRSLKACGVPKQGSIPYDSVTGPSKHSVLWNAMIHPLCNMTLKGVVWYQGESNINYNTDLYNCTFPALIEDWRETFHRGSQGQTERFFPFGLVQLSSDLSKKSSDDGFPQIRWHQTADFGYVPNPKMPNTFMAVAMDLCDRDSPFGSIHPRDKQTVAYRLHLGARALAYGEKNLTFEGPLPEKIELLAHKGLLNLTYYQQIQVQKKDNKIFEISCCSDHRCKWLPASMNTVSTQSLTLAIDSCHGTVVALRYAWTTWPCEYKQCPLYHPSSALPAPPFIAFITDQGPGHQSNVAK [SIAE] | 1.01 | -0.521 | 58 | 57.9 | 0.569 | -0.103 |
| MDSTLTASEIRQRFIDFFKRNEHTYVHSSATIPLDDPTLLFANAGMNQFKPIFLNTIDPSHPMAKLSRAANTQKCIRAGGKHNDLDDVGKDVYHHTFFEMLGSWSFGDYFKELACKMALELLTQEFGIPIERLYVTYFGGDEAAGLEADLECKQIWQNLGLDDTKILPGNMKDNFWEMGDTGPCGPCSEIHYDRIGGRDAAHLVNQDDPNVLEIWNLVFIQYNREADGILKPLPKKSIDTGMGLERLVSVLQNKMSNYDTDLFVPYFEAIQKGTGARPYTGKVGAEDADGIDMAYRVLADHARTITVALADGGRPDNTGRGYVLRRILRRAVRYAHEKLNASRGFFATLVDVVVQSLGDAFPELKKDPDMVKDIINEEEVQFLKTLSRGRRILDRKIQSLGDSKTIPGDTAWLLYDTYGFPVDLTGLIAEEKGLVVDMDGFEEERKLAQLKSQGKGAGGEDLIMLDIYAIEELRARGLEVTDDSPKYNYHLDSSGSYVFENTVATVMALRREKMFVEEVSTGQECGVVLDKTCFYAEQGGQIYDEGYLVKVDDSSEDKTEFTVKNAQVRGGYVLHIGTIYGDLKVGDQVWLFIDEPRRRPIMSNHTATHILNFALRSVLGEADQKGSLVAPDRLRFDFTAKGAMSTQQIKKAEEIANEMIEAAKAVYTQDCPLAAAKAIQGLRAVFDETYPDPVRVVSIGVPVSELLDDPSGPAGSLTSVEFCGGTHLRNSSHAGAFVIVTEEAIAKGIRRIVAVTGAEAQKALRKAESLKKCLSVMEAKVKAQTAPNKDVQREIADLGEALATAVIPQWQKDELRETLKSLKKVMDDLDRASKADVQKRVLEKTKQFIDSNPNQPLVILEMESGASAKALNEALKLFKMHSPQTSAMLFTVDNEAGKITCLCQVPQNAANRGLKASEWVQQVSGLMDGKGGGKDVSAQATGKNVGCLQEALQLATSFAQLRLGDVKN [AARS] | 2.25 | 2.81 | 51.6 | 52.1 | 0.201 | -0.1 |
| ASNA1 | 0.0219 | 1.19 | 53.4 | 54.6 | 0.349 | -0.258 |
| MADDDVLFEDVYELCEVIGKGPFSVVRRCINRETGQQFAVKIVDVAKFTSSPGLSTEDLKREASICHMLKHPHIVELLETYSSDGMLYMVFEFMDGADLCFEIVKRADAGFVYSEAVASHYMRQILEALRYCHDNNIIHRDVKPHCVLLASKENSAPVKLGGFGVAIQLGESGLVAGGRVGTPHFMAPEVVKREPYGKPVDVWGCGVILFILLSGCLPFYGTKERLFEGIIKGKYKMNPRQWSHISESAKDLVRRMLMLDPAERITVYEALNHPWLKERDRYAYKIHLPETVEQLRKFNARRKLKGAVLAAVSSHKFNSFYGDPPEELPDFSEDPTSSGLLAAERAVSQVLDSLEEIHALTDCSEKDLDFLHSVFQDQHLHTLLDLYDKINTKSSPQIRNPPSDAVQRAKEVLEEISCYPENNDAKELKRILTQPHFMALLQTHDVVAHEVYSDEALRVTPPPTSPYLNGDSPESANGDMDMENVTRVRLVQFQKNTDEPMGITLKMNELNHCIVARIMHGGMIHRQGTLHVGDEIREINGISVANQTVEQLQKMLREMRGSITFKIVPSYRTQSSSCERDSPSTSRQSPANGHSSTNNSVSDLPSTTQPKGRQIYVRAQFEYDPAKDDLIPCKEAGIRFRVGDIIQIISKDDHNWWQGKLENSKNGTAGLIPSPELQEWRVACIAMEKTKQEQQASCTWFGKKKKQYKDKYLAKHNAVFDQLDLVTYEEVVKLPAFKRKTLVLLGAHGVGRRHIKNTLITKHPDRFAYPIPHTTRPPKKDEENGKNYYFVSHDQMMQDISNNEYLEYGSHEDAMYGTKLETIRKIHEQGLIAILDVEPQALKVLRTAEFAPFVVFIAAPTITPGLNEDESLQRLQKESDILQRTYAHYFDLTIINNEIDETIRHLEEAVELVCTAPQWVPVSWVY [CASK] | -0.366 | -0.0785 | 52.1 | 51.9 | -0.129 | -0.0742 |
| MAAACRSVKGLVAVITGGASGLGLATAERLVGQGASAVLLDLPNSGGEAQAKKLGNNCVFAPADVTSEKDVQTALALAKGKFGRVDVAVNCAGIAVASKTYNLKKGQTHTLEDFQRVLDVNLMGTFNVIRLVAGEMGQNEPDQGGQRGVIINTASVAAFEGQVGQAAYSASKGGIVGMTLPIARDLAPIGIRVMTIAPGLFGTPLLTSLPEKVCNFLASQVPFPSRLGDPAEYAHLVQAIIENPFLNGEVIRLDGAIRMQP [HSD17B10] | 0.0147 | -4.18 | 54.5 | 54.4 | 0.254 | -0.041 |
| MALLFARSLRLCRWGAKRLGVASTEAQRGVSFKLEEKTAHSSLALFRDDTGVKYGLVGLEPTKVALNVERFREWAVVLADTAVTSGRHYWEVTVKRSQQFRIGVADVDMSRDSCIGVDDRSWVFTYAQRKWYTMLANEKAPVEGIGQPEKVGLLLEYEAQKLSLVDVSQVSVVHTLQTDFRGPVVPAFALWDGELLTHSGLEVPEGL [SPRYD4] | -1.47 | -3.25 | 53.9 | 54.8 | -0.0415 | -0.14 |
